Substrate in the data set: CCn1c(=NN=c2sc3cc(S(=O)(=O)O)ccc3n2CC)sc2cc(S(=O)(=O)O)ccc21
In words: purified protein. Particulars: H2O2 25 mM (saturating), no added Ca2+, 100 mM Tris-HCl pH 7.0.

B1: Euphorbia characias latex peroxidase (ELP) (Euphorbia characias) (protein)
chain: QTKPPIVNGLSWTFYKSSCPKVESIIQKELKKLFKKDVEQAAGLLRLHFHDCFVLGCDGSVLLNGSAGGPSEQSELPNLSLRKQAFKIVNDLRALVHKECGPVVSCSDIVAIAARDSVVLTGGPKYDVPLGRRDGVKFAEVNATFEHLVGPTANVTTILAKLARKGLDTTDAVSLSGGHTIGIGHCTSFTERLYPSQDPTLDKTFANNLKRTCPNVNTENSTFLDLRTPNEFDNRYYVDLMNRQGLFTSDQDLYTDKRTRQIVIDFAVNQTLFYEKFIIGMIKMGQLEVVTGNQGEIRNDCSFRNSDNYLVSVTDEESGSSSELR
Turning to B1, the Km turned out to be 550 ± 20 µM, the kcat came to 170 ± 11 s⁻¹ and the kcat/Km is 309000 M⁻¹ s⁻¹.

The values above are taken from PMC3678129.
